Measurements reported in the supplement of paper PMC10126150.
± gives the standard deviation of the averaged measurements.

Test system: ATP
Assay: switch fluorescence ratio, 500 uM ATP over buffer (Cy3 cluster intensity, sum of 5 cycles each) (fold (ratio)); higher = stronger signal-on switching upon ATP binding; sequences stand for … in TCGTCGGCAGCGTCAGATGTGTATAAGAGACAGTTTTTTTTTTTTTTTTTTTTTTTTT…TC
Conditions: aptamer strand: ATP DNA aptamer (quencher-CACCTGGGGGAGTATTGCGGAGGAAGG + anchor), 100 nM annealed; ATP concentration: 500 uM
In short: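 Cy3-labelled switching-strand clusters on a modified Illumina MiSeq flow-cell were annealed to 100 nM quencher-labelled ATP aptamer, imaged in selection buffer, then imaged after 15 min with 500 uM ATP at 22 °C. Five buffer/ATP cycles ran, with NaOH stripping and re-annealing between them. The fluorescence ratio is summed target-cycle over summed buffer-cycle Cy3 intensity per cluster, averaged per switch-domain sequence. Clusters outside 100-1000 RFU were excluded.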
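Further: ATP exposure 15 min at 22 °C before imaging.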

Row | Sequence | switch fluorescence ratio
1 | GAATATGTGG | 1 ± 0.013
2 | GAATATTTTG | 0.994 ± 0.015
3 | GAATCAATGG | 1.03 ± 0.02
4 | GAATCATGTT | 0.9915 ± 0.0065
5 | GAATCCAGTT | 0.989 ± 0.02
6 | GAATCCGTTC | 1.07 ± 0.026
7 | GAATCGATAC | 1.76 ± 0.084
8 | GAATCGGGGT | 0.992 ± 0.045
9 | GAATCTCGGA | 1.018 ± 0.0018
10 | GAATGAAGAA | 0.9989 ± 0.0081
11 | GAATGAGATC | 1.01 ± 0.11
12 | GAATGAGATT | 1.001 ± 0.0043
13 | GAATGGAGGT | 1.01 ± 0.021
14 | GAATGGCTAG | 1.0109 ± 0.00049
15 | GAATGGCTGG | 0.962 ± 0.0099
16 | GAATGGGAGT | 0.9969 ± 0.0051
17 | GAATGGGTAT | 0.979 ± 0.026
18 | GAATGGTAGT | 1.025 ± 0.0078
19 | GAATGTATCG | 0.981 ± 0.021
20 | GAATGTATGA | 0.99 ± 0.023
21 | GAATGTTCAG | 1.02 ± 0.024
22 | GAATGTTCTG | 0.996 ± 0.052
23 | GAATTAGAGA | 1.03 ± 0.033
24 | GAATTAGGGA | 1.01 ± 0.018
25 | GAATTATCAG | 0.968 ± 0.045

Row | Sequence | switch fluorescence ratio
26 | GAATTATGTT | 1.01 ± 0.004
27 | GAATTGGGGG | 1.01 ± 0.03
28 | GAATTTCGGG | 0.996 ± 0.013
29 | GAATTTGAGC | 1.03 ± 0.02
30 | GAATTTGGAA | 1.01 ± 0.022
31 | GAATTTGTGA | 0.98 ± 0.035
32 | GAATTTGTGG | 0.995 ± 0.037
33 | GAATTTTGG | 0.9824 ± 0.0032
34 | GAATTTTTTC | 1.02 ± 0.016
35 | GACAAATCTG | 1.04 ± 0.043
36 | GACAACGGAT | 1.02 ± 0.03
37 | GACAACTTTT | 0.991 ± 0.016
38 | GACAATTCTT | 1.006 ± 0.0096
39 | GACACAGGGG | 1.06 ± 0.047
40 | GACACATCAA | 1.048 ± 0.008
41 | GACACCAATC | 1.36 ± 0.052
42 | GACACGGGGT | 1 ± 0.071
43 | GACACGTGGG | 1.02 ± 0.055
44 | GACAGAGCCA | 1.1036 ± 0.0011
45 | GACAGAGGGT | 1.04 ± 0.013
46 | GACAGCGGCG | 1.01 ± 0.032
47 | GACAGGGTCC | 1.04 ± 0.052
48 | GACAGTCGGC | 0.9669 ± 0.0067
49 | GACATAAAGT | 0.986 ± 0.014
50 | GACATCCGGC | 1.05 ± 0.036

Row | Sequence | switch fluorescence ratio
51 | GACATGATGT | 1.032 ± 0.0063
52 | GACATTCACC | 1.1 ± 0.016
53 | GACCAAGAAT | 1.06 ± 0.03
54 | GACCAATATT | 1.134 ± 0.0034
55 | GACCACGCTG | 1.044 ± 0.0056
56 | GACCAGCCCC | 1.31 ± 0.098
57 | GACCATGTTT | 0.9932 ± 0.0082
58 | GACCCTAGAT | 1.008 ± 0.0036
59 | GACCCTGATA | 0.987 ± 0.015
60 | GACCGGACAT | 0.996 ± 0.013
61 | GACCGGAGTC | 1.03 ± 0.049
62 | GACCGTAATG | 1.05 ± 0.03
63 | GACCTAAGAC | 1.13 ± 0.053
64 | GACCTATATT | 1.05 ± 0.022
65 | GACCTATCTT | 1.035 ± 0.0017
66 | GACCTATTCG | 1.01 ± 0.018
67 | GACCTATTTT | 1.023 ± 0.0039
68 | GACCTCAGAC | 1.09 ± 0.024
69 | GACCTCAGGT | 1.08 ± 0.11
70 | GACCTTTGTT | 1.01 ± 0.022
71 | GACGACAGTC | 1.029 ± 0.0052
72 | GACGACGACA | 2.5 ± 0.092
73 | GACGACTATT | 1.13 ± 0.016
74 | GACGACTGAG | 0.999 ± 0.087
75 | GACGAGCGGT | 1.3 ± 0.22

Row | Sequence | switch fluorescence ratio
76 | GACGAGGCAG | 2.27 ± 0.21
77 | GACGATTGCG | 1.01 ± 0.032
78 | GACGATTGTG | 0.991 ± 0.07
79 | GACGGAAGAA | 1.74 ± 0.072
80 | GACGGAAGTT | 1.004 ± 0.0017
81 | GACGGAGTCG | 0.997 ± 0.03
82 | GACGGCAGTG | 1 ± 0.02
83 | GACGGGATAG | 1.245 ± 0.0072
84 | GACGGGATCA | 1.02 ± 0.033
85 | GACGGGCCGG | 1.01 ± 0.03
86 | GACGGGGACT | 1.1 ± 0.025
87 | GACGGGGCCC | 1 ± 0.013
88 | GACGGGGGAA | 1.82 ± 1.3
89 | GACGGGGGGC | 1.02 ± 0.018
90 | GACGGGGGTA | 1.04 ± 0.043
91 | GACGGGGTTA | 1.02 ± 0.018
92 | GACGGGTTAG | 1.02 ± 0.017
93 | GACGGTAAAG | 0.996 ± 0.037
94 | GACGGTAGTT | 1.01 ± 0.047
95 | GACGGTCACT | 1.21 ± 0.013
96 | GACGGTTGCG | 0.977 ± 0.054
97 | GACGTCGGGA | 1.012 ± 0.0021
98 | GACGTTGGGG | 0.977 ± 0.01
99 | GACGTTTAAT | 1.021 ± 0.0057
100 | GACGTTTTGG | 0.997 ± 0.025

Row | Sequence | switch fluorescence ratio
101 | GACTAAAATG | 1.02 ± 0.019
102 | GACTAAATGC | 1.8 ± 0.3
103 | GACTAATACG | 1.04 ± 0.024
104 | GACTACAGTG | 1.1 ± 0.019
105 | GACTAGGAAG | 0.994 ± 0.022
106 | GACTATTAGG | 0.989 ± 0.029
107 | GACTATTGGG | 1 ± 0.044
108 | GACTATTTGG | 1.02 ± 0.044
109 | GACTCAGACA | 1.03 ± 0.047
110 | GACTCGAAAA | 1.17 ± 0.16
111 | GACTCTAGGA | 1.064 ± 0.0025
112 | GACTCTATGG | 0.943 ± 0.11
113 | GACTGAATAC | 3.91 ± 1.9
114 | GACTGAGGGG | 1.02 ± 0.05
115 | GACTGAGTTG | 0.998 ± 0.036
116 | GACTGGCATA | 1.097 ± 0.0039
117 | GACTGGCTT | 0.9868 ± 0.0073
118 | GACTGGGGAG | 0.991 ± 0.056
119 | GACTGGGGGG | 0.997 ± 0.041
120 | GACTGTAAGC | 1.057 ± 0.0074
121 | GACTGTACTA | 1.48 ± 0.075
122 | GACTTACGTT | 1.22 ± 0.17
123 | GACTTCGAAA | 1.63 ± 0.028
124 | GACTTCGAGC | 1.02 ± 0.024
125 | GACTTGAGGT | 1.03 ± 0.025

Row | Sequence | switch fluorescence ratio
126 | GACTTGCTGG | 0.9876 ± 0.0044
127 | GACTTGGAAT | 1 ± 0.041
128 | GACTTTGGCA | 0.983 ± 0.034
129 | GACTTTGTCA | 1.04 ± 0.025
130 | GACTTTTACC | 1.07 ± 0.027
131 | GACTTTTTAG | 0.9801 ± 0.0065
132 | GAGAAAGCCC | 1 ± 0.015
133 | GAGAAGAGGA | 0.9918 ± 0.0021
134 | GAGAAGATTT | 1.036 ± 0.0016
135 | GAGAATCCGG | 1 ± 0.087
136 | GAGAATGGGT | 0.981 ± 0.022
137 | GAGAATGTGT | 0.994 ± 0.012
138 | GAGACACATA | 1.09 ± 0.013
139 | GAGACCGTGT | 1.01 ± 0.052
140 | GAGACGGGGA | 0.982 ± 0.021
141 | GAGACGGGTG | 1.01 ± 0.031
142 | GAGACGGTCT | 1.05 ± 0.025
143 | GAGAGAAGTG | 0.945 ± 0.022
144 | GAGAGAATGG | 0.994 ± 0.0043
145 | GAGAGACAGG | 1.014 ± 0.0095
146 | GAGAGGAGGG | 0.944 ± 0.049
147 | GAGAGGAGTA | 0.967 ± 0.037
148 | GAGAGGCTGC | 0.975 ± 0.02
149 | GAGAGGCTGT | 0.9538 ± 0.0062
150 | GAGAGGGAGC | 0.91 ± 0.076

Row | Sequence | switch fluorescence ratio
151 | GAGAGGGGCT | 1.01 ± 0.02
152 | GAGAGGGGTC | 1.01 ± 0.045
153 | GAGAGGTG | 1.08 ± 0.021
154 | GAGAGTACGT | 0.964 ± 0.013
155 | GAGAGTTATT | 0.988 ± 0.04
156 | GAGATATACT | 1.06 ± 0.017
157 | GAGATCAGTT | 0.9808 ± 0.0058
158 | GAGATGATTT | 1.02 ± 0.063
159 | GAGATGGGGC | 1.09 ± 0.1
160 | GAGATGTTT | 0.969 ± 0.04
161 | GAGATTCTTG | 1 ± 0.02
162 | GAGATTGGTG | 1 ± 0.031
163 | GAGATTGTGG | 0.9652 ± 0.0048
164 | GAGCAAGAGT | 1.8 ± 0.046
165 | GAGCAGGGCC | 0.982 ± 0.046
166 | GAGCATATCA | 1.006 ± 0.0028
167 | GAGCCAGGGA | 1.001 ± 0.0029
168 | GAGCCCAATG | 1.0092 ± 0.001
169 | GAGCGGGGGA | 1.03 ± 0.017
170 | GAGCGGTTTG | 0.998 ± 0.017
171 | GAGCGTCGGA | 1.03 ± 0.12
172 | GAGCTAGGAT | 0.985 ± 0.018
173 | GAGCTGGCGG | 1.05 ± 0.038
174 | GAGCTTACTT | 1.104 ± 0.011
175 | GAGCTTCTGT | 1 ± 0.04

Row | Sequence | switch fluorescence ratio
176 | GAGCTTGAGT | 0.984 ± 0.011
177 | GAGCTTTTTT | 0.9986 ± 0.0034
178 | GAGGAAACAG | 1.022 ± 0.0067
179 | GAGGAACCTG | 1.09 ± 0.0052
180 | GAGGAAGGGA | 1.01 ± 0.017
181 | GAGGAAGTTT | 1 ± 0.041
182 | GAGGAATGAG | 0.9878 ± 0.005
183 | GAGGAATTGG | 0.979 ± 0.012
184 | GAGGACATGC | 0.979 ± 0.11
185 | GAGGAGGGGG | 0.986 ± 0.032
186 | GAGGAGGTAT | 0.973 ± 0.019
187 | GAGGAGTGAA | 0.9973 ± 0.0067
188 | GAGGATATAG | 1.03 ± 0.061
189 | GAGGATATGG | 0.98 ± 0.021
190 | GAGGATGTCT | 0.99 ± 0.021
191 | GAGGATTAGA | 0.988 ± 0.015
192 | GAGGATTCGG | 0.986 ± 0.026
193 | GAGGCAGGGT | 1.033 ± 0.0064
194 | GAGGCATCTC | 1.02 ± 0.025
195 | GAGGCCTTGG | 0.983 ± 0.04
196 | GAGGCGGACT | 1.02 ± 0.015
197 | GAGGCGGATT | 1.01 ± 0.026
198 | GAGGCTAGTG | 0.988 ± 0.0092
199 | GAGGCTGGGG | 1 ± 0.038
200 | GAGGGAAAAA | 1.44 ± 0.88
